Assay results: patent US20190359687A1 (Bayer, published 2019)
Blank lines part the entries; values can stand above or below the binder they belong to.

Key:
[1] = biological target: T1, Cynomolgus monkey glycophorin A on Cynomolgus monkey red blood cells (Cynomolgus monkey); assay: partition to Cyno RBC, human HemA plasma, 5 min;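 further: FVIII fusion spiked at 1 IU/mL into RBC suspension at whole-blood density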
T1 construct: whole, on cells; also called Cyno GPA; Cyno RBC

[2] = biological target: T2, human glycophorin A on human red blood cells (human, UniProt P02724 20-150); assay: partition to human RBC, human HemA plasma, 15 min
T2 construct: whole, on cells; also called human GPA; huGPA
T2 sequence (looked up): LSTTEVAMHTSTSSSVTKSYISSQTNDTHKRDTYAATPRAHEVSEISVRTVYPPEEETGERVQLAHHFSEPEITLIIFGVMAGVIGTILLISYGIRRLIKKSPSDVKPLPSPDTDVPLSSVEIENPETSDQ
Protocol: (§1) The supernatant containing plasma, platelets and white blood cells was discarded and the red blood cell pellet was resuspended in 10 pellet volumes of PBS (50 mM Phosphate buffer, pH7.4, 150 mM NaCl). The red blood cells were then pelleted by slow speed centrifugation and the red blood cells re-suspended in 10 volumes of PBS. This washing step was repeated 4 more times and the red blood cells finally resuspended in a volume of plasma from Hemophilia patients with less than 1% of normal levels of FVIII (GeorgeKing Bio-Medical, Overland Park, Kans.) to generate a total volume equal to the initial blood volume such that the RBC density was equal to that of normal whole blood. BDD and RBC targeted FVIII molecules were then spiked into RBC suspension in HemA plasma at 1 IU/mL, and incubated at room temperature for 2-3 hours with gentle rotation. […] An additional control was performed in which BDD or RBC targeted FVIII molecules were added at 11U/ml into the same human hemophilia A plasma and incubated for 5 minutes and 180 mins. These samples were used to determine the input FVIII activity in the presence of plasma which was used to calculate the percentage of the molecule that was bound to RBC. All plasma samples were then assayed together for FVIII activity using the Coatest SP assay (DiaPharma, Columbus, Ohio). The assay was performed following the manufacturer's instructions in a 96-well plate format. […] The plate was incubated at 37° C. for 10 minutes with shaking between each reagent addition. […] The amount of FVIII activity in the plasma reflects the amount of unbound FVIII. The FVIII activity of the same molecule spiked in to Hemophilia A plasma alone (no RBC) and incubated for 5 minutes was normalized to 100%.

[3] = biological target: T2, human glycophorin A on human red blood …; assay: partition to human RBC, human HemA plasma, 120 min
[4] = biological target: T1, Cynomolgus monkey glycophorin A on …; assay: partition to Cyno RBC, human HemA plasma, 1 min;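 further: FVIII fusion spiked at 1 IU/mL into RBC suspension at whole-blood density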
Protocol: (§2) To evaluate partition to cynomolgus monkey or human red blood cells, whole blood was draw from Cynomolgus monkey or normal human volunteers in to anticoagulant with 4% sodium citrate (Sigma, St Louis, Mo.). The red blood cells were purified by layering the whole blood on to ficoll followed by low speed centrifugation. The supernatant containing plasma, platelets and white blood cells was discarded and the red blood cell pellet was resuspended in 10 pellet volumes of PBS (50 mM Phosphate buffer, pH7.4, 150 mM NaCl). The red blood cells were then pelleted by slow speed centrifugation and the red blood cells re-suspended in 10 volumes of PBS. This washing step was repeated 4 more times and the red blood cells finally resuspended in a volume of plasma from Hemophilia patients with less than 1% of normal levels of FVIII (GeorgeKing Bio-Medical, Overland Park, Kans.) to generate a total volume equal to the initial blood volume such that the RBC density was equal to that of normal whole blood. BDD and RBC targeted FVIII molecules were then spiked into RBC suspension in HemA plasma at 1 IU/mL, and incubated at room temperature for 2-3 hours with gentle rotation. […] An additional control was performed in which BDD or RBC targeted FVIII molecules were added at 11U/ml into the same human hemophilia A plasma and incubated for 5 minutes and 180 mins. These samples were used to determine the input FVIII activity in the presence of plasma which was used to calculate the percentage of the molecule that was bound to RBC. All plasma samples were then assayed together for FVIII activity using the Coatest SP assay (DiaPharma, Columbus, Ohio). The assay was performed following the manufacturer's instructions in a 96-well plate format. […] The plate was incubated at 37° C. for 10 minutes with shaking between each reagent addition.

[5] = biological target: T1, Cynomolgus monkey glycophorin A on …; assay: partition to Cyno RBC, human HemA plasma, 30 min;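 further: FVIII fusion spiked at 1 IU/mL into RBC suspension at whole-blood density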
[6] = biological target: T2, human glycophorin A on human red blood …; assay: partition to human RBC, human HemA plasma, 1 min
Protocol: as §1

[7] = biological target: T2, human glycophorin A on human red blood …; assay: partition to human RBC, human HemA plasma, 5 min
[8] = biological target: T1, Cynomolgus monkey glycophorin A on …; assay: partition to Cyno RBC, human HemA plasma, 15 min;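 further: FVIII fusion spiked at 1 IU/mL into RBC suspension at whole-blood density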
[9] = biological target: T2, human glycophorin A on human red blood …; assay: partition to human RBC, human HemA plasma, 120 min; remark: listed apart in the source
Protocol: as §1

[10] = biological target: T1, Cynomolgus monkey glycophorin A on …; assay: partition to Cyno RBC, human HemA plasma, 120 min;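 further: FVIII fusion spiked at 1 IU/mL into RBC suspension at whole-blood density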
Protocol: as §2

[11] = biological target: T2, human glycophorin A on human red blood …; assay: partition to human RBC, human HemA plasma, 60 min
Protocol: as §1

[12] = biological target: T2, human glycophorin A on human red blood …; assay: partition to human RBC, human HemA plasma, 30 min
Protocol: as §1

[13] = biological target: T1, Cynomolgus monkey glycophorin A on …; assay: partition to Cyno RBC, human HemA plasma, 60 min;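 further: FVIII fusion spiked at 1 IU/mL into RBC suspension at whole-blood density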
Protocol: as §2

[14] = biological target: T2, human glycophorin A on human red blood …; assay: partition to human RBC, vWF deficient plasma, 5 min
[15] = biological target: T2, human glycophorin A on human red blood …; assay: partition to human RBC, vWF deficient plasma, 30 min
[16] = biological target: T2, human glycophorin A on human red blood …; assay: partition to human RBC, vWF deficient plasma, 15 min
[17] = biological target: T2, human glycophorin A on human red blood …; assay: partition to human RBC, vWF deficient plasma, 60 min
[18] = biological target: T2, human glycophorin A on human red blood …; assay: partition to human RBC, vWF deficient plasma, 120 min
[19] = biological target: T2, human glycophorin A on human red blood …; assay: partition to human RBC, vWF deficient plasma, 1 min

% bound to Cyno RBC [1]: 65.7% | percentage bound to human RBC [2]: 86.6% | percentage bound to human RBC [3]: 95.2% | % bound to Cyno RBC [4]: 53.4% | % bound to Cyno RBC [5]: 78.1% | percentage bound to human RBC [6]: 55.2% | percentage bound to human RBC [7]: 74.3% | % bound to Cyno RBC [8]: 75.6% | percentage bound to human RBC [9]: 95.2% | % bound to Cyno RBC [10]: 86.8% | percentage bound to human RBC [11]: 93.5% | percentage bound to human RBC [12]: 90.4% | % bound to Cyno RBC [13]: 84.5%
B1: TPP-9976 FVIII-scFv fusion protein (other)
chain: ATRRYYLGAVELSWDYMQSDLGELPVDARFPPRVPKSFPFNTSVVYKKTLFVEFTDHLFNIAKPRPPWMGLLGPTIQAEVYDTVVITLKNMASHPVSLHAVGVSYWKASEGAEYDDQTSQREKEDDKVFPGGSHTYVWQVLKENGPMASDPLCLTYSYLSHVDLVKDLNSGLIGALLVCREGSLAKEKTQTLHKFILLFAVFDEGKSWHSETKNSLMQDRDAASARAWPKMHTVNGYVNRSLPGLIGCHRKSVYWHVIGMGTTPEVHSIFLEGHTFLVRNHRQASLEISPITFLTAQTLLMDLGQFLLFCHISSHQHDGMEAYVKVDSCPEEPQLRMKNNEEAEDYDDDLTDSEMDVVRFDDDNSPSFIQIRSVAKKHPKTWVHYIAAEEEDWDYAPLVLAPDDRSYKSQYLNNGPQRIGRKYKKVRFMAYTDETFKTREAIQHESGILGPLLYGEVGDTLLIIFKNQASRPYNIYPHGITDVRPLYSRRLPKGVKHLKDFPILPGEIFKYKWTVTVEDGPTKSDPRCLTRYYSSFVNMERDLASGLIGPLLICYKESVDQRGNQIMSDKRNVILFSVFDENRSWYLTENIQRFLPNPAGVQLEDPEFQASNIMHSINGYVFDSLQLSVCLHEVAYWYILSIGAQTDFLSVFFSGYTFKHKMVYEDTLTLFPFSGETVFMSMENPGLWILGCHNSDFRNRGMTALLKVSSCDKNTGDYYEDSYEDISAYLLSKNNAIEPRSFSQNGGGGSTGGTGGSSGGGTGSGGGGTGGSGGTDIQLTQSPSFLSASVGDRVTITCRASSSVRYIYWFQQKPGKAPKLLIYATSFRQSGVPSRFSGSGSGTEYTLTISSLQPEDFATYYCHQRNSFPYTFGQGTKLEIKGGGGSGGGGSGGGGSGGGGSEVQLVQSGAEVKKPGASVKVSCKASGYTFTTYAIHWVRQAPGQGLEWMGYINPSSGYTRYNPKFKGRVTMTRDKSTSTAYMELRSLRSDDTAVYYCWTGTRDYWGQGTTVTVSSGGGGDIQLTQSPSFLSASVGDRVTITCRASSSVRYIYWFQQKPGKAPKLLIYATSFRQSGVPSRFSGSGSGTEYTLTISSLQPEDFATYYCHQRNSFPYTFGQGTKLEIKGGGGSGGGGSGGGGSGGGGSEVQLVQSGAEVKKPGASVKVSCKASGYTFTTYAIHWVRQAPGQGLEWMGYINPSSGYTRYNPKFKGRVTMTRDKSTSTAYMELRSLRSDDTAVYYCWTGTRDYWGQGTTVTVSSGGGGDENQSPRSFQKKTRHYFIAAVERLWDYGMSSSPHVLRNRAQSGSVPQFKKVVFQEFTDGSFTQPLYRGELNEHLGLLGPYIRAEVEDNIMVTFRNQASRPYSFYSSLISYEEDQRQGAEPRKNFVKPNETKTYFWKVQHHMAPTKDEFDCKAWAYFSDVDLEKDVHSGLIGPLLVCHTNTLNPAHGRQVTVQEFALFFTIFDETKSWYFTENMERNCRAPCNIQMEDPTFKENYRFHAINGYIMDTLPGLVMAQDQRIRWYLLSMGSNENIHSIHFSGHVFTVRKKEEYKMALYNLYPGVFETVEMLPSKAGIWRVECLIGEHLHAGMSTLFLVYSNKCQTPLGMASGHIRDFQITASGQYGQWAPKLARLHYSGSINAWSTKEPFSWIKVDLLAPMIIHGIKTQGARQKFSSLYISQFIIMYSLDGKKWQTYRGNSTGTLMVFFGNVDSSGIKHNIFNPPIIARYIRLHPTHYSIRSTLRMELMGCDLNSCSMPLGMESKAISDAQITASSYFTNMFATWSPSKARLHLQGRSNAWRPQVNNPKEWLQVDFQKTMKVTGVTTQGVKSLLTSMYVKEFLISSSQDGHQWTLFFQNGKVKVFQGNQDSFTPVVNSLDPPLLTRYLRIHPQSWVHQIALRMEVLGCEAQDLY
notes: also called PPB 7998

% bound to Cyno RBC [1]: 46% | percentage bound to human RBC [14]: 44.9% | percentage bound to human RBC [2]: 71.5% | percentage bound to human RBC [3]: 86.7% | percentage bound to human RBC [15]: 57.3% | % bound to Cyno RBC [4]: 26.4% | % bound to Cyno RBC [5]: 58% | percentage bound to human RBC [16]: 53.8% | percentage bound to human RBC [6]: 31.4% | percentage bound to human RBC [7]: 53.8% | % bound to Cyno RBC [8]: 54% | percentage bound to human RBC [9]: 86.7% | % bound to Cyno RBC [10]: 71% | percentage bound to human RBC [17]: 64.3% | percentage bound to human RBC [11]: 84.1% | percentage bound to human RBC [12]: 78.9% | percentage bound to human RBC [18]: 72.7% | percentage bound to human RBC [19]: 26% | % bound to Cyno RBC [13]: 68%
B2: TPP-9901 FVIII-scFv fusion protein (other)
chain: ATRRYYLGAVELSWDYMQSDLGELPVDARFPPRVPKSFPFNTSVVYKKTLFVEFTDHLFNIAKPRPPWMGLLGPTIQAEVYDTVVITLKNMASHPVSLHAVGVSYWKASEGAEYDDQTSQREKEDDKVFPGGSHTYVWQVLKENGPMASDPLCLTYSYLSHVDLVKDLNSGLIGALLVCREGSLAKEKTQTLHKFILLFAVFDEGKSWHSETKNSLMQDRDAASARAWPKMHTVNGYVNRSLPGLIGCHRKSVYWHVIGMGTTPEVHSIFLEGHTFLVRNHRQASLEISPITFLTAQTLLMDLGQFLLFCHISSHQHDGMEAYVKVDSCPEEPQLRMKNNEEAEDYDDDLTDSEMDVVRFDDDNSPSFIQIRSVAKKHPKTWVHYIAAEEEDWDYAPLVLAPDDRSYKSQYLNNGPQRIGRKYKKVRFMAYTDETFKTREAIQHESGILGPLLYGEVGDTLLIIFKNQASRPYNIYPHGITDVRPLYSRRLPKGVKHLKDFPILPGEIFKYKWTVTVEDGPTKSDPRCLTRYYSSFVNMERDLASGLIGPLLICYKESVDQRGNQIMSDKRNVILFSVFDENRSWYLTENIQRFLPNPAGVQLEDPEFQASNIMHSINGYVFDSLQLSVCLHEVAYWYILSIGAQTDFLSVFFSGYTFKHKMVYEDTLTLFPFSGETVFMSMENPGLWILGCHNSDFRNRGMTALLKVSSCDKNTGDYYEDSYEDISAYLLSKNNAIEPRSFSQNGGGGSTGGTGGSSGGGTGSGGGGTGGSGGTDIQLTQSPSFLSASVGDRVTITCRASSSVRYIYWFQQKPGKAPKLLIYATSFRQSGVPSRFSGSGSGTEYTLTISSLQPEDFATYYCHQRNSFPYTFGQGTKLEIKGGGGSGGGGSGGGGSGGGGSEVQLVQSGAEVKKPGASVKVSCKASGYTFTTYAIHWVRQAPGQGLEWMGYINPSSGYTRYNPKFKGRVTMTRDKSTSTAYMELRSLRSDDTAVYYCWTGTRDYWGQGTTVTVSSGGGGDENQSPRSFQKKTRHYFIAAVERLWDYGMSSSPHVLRNRAQSGSVPQFKKVVFQEFTDGSFTQPLYRGELNEHLGLLGPYIRAEVEDNIMVTFRNQASRPYSFYSSLISYEEDQRQGAEPRKNFVKPNETKTYFWKVQHHMAPTKDEFDCKAWAYFSDVDLEKDVHSGLIGPLLVCHTNTLNPAHGRQVTVQEFALFFTIFDETKSWYFTENMERNCRAPCNIQMEDPTFKENYRFHAINGYIMDTLPGLVMAQDQRIRWYLLSMGSNENIHSIHFSGHVFTVRKKEEYKMALYNLYPGVFETVEMLPSKAGIWRVECLIGEHLHAGMSTLFLVYSNKCQTPLGMASGHIRDFQITASGQYGQWAPKLARLHYSGSINAWSTKEPFSWIKVDLLAPMIIHGIKTQGARQKFSSLYISQFIIMYSLDGKKWQTYRGNSTGTLMVFFGNVDSSGIKHNIFNPPIIARYIRLHPTHYSIRSTLRMELMGCDLNSCSMPLGMESKAISDAQITASSYFTNMFATWSPSKARLHLQGRSNAWRPQVNNPKEWLQVDFQKTMKVTGVTTQGVKSLLTSMYVKEFLISSSQDGHQWTLFFQNGKVKVFQGNQDSFTPVVNSLDPPLLTRYLRIHPQSWVHQIALRMEVLGCEAQDLYGGGSGGGGSGLVPRGSGGGSGGGGSGDIQLTQSPSFLSASVGDRVTITCRASSSVRYIYWFQQKPGKAPKLLIYATSFRQSGVPSRFSGSGSGTEYTLTISSLQPEDFATYYCHQRNSFPYTFGQGTKLEIKGGGGSGGGGSGGGGSGGGGSEVQLVQSGAEVKKPGASVKVSCKASGYTFTTYAIHWVRQAPGQGLEWMGYINPSSGYTRYNPKFKGRVTMTRDKSTSTAYMELRSLRSDDTAVYYCWTGTRDYWGQGTTVTVSS
notes: also called PPB 7855
